Data from the nanobody polyreactivity screen of Harvey et al. (2022).

Assay: yeast display, Sf9 membrane polyspecificity reagent, FACS + sequencing; frameworks hold sequencing errors
How it was run: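 A synthetic nanobody library was expressed on Saccharomyces cerevisiae BJ5465 by galactose induction for 36–48 hours. The library was stained for 1 hour at 4 °C with 10% biotinylated, detergent-solubilized Sf9 membrane reagent and enriched with streptavidin microbeads before FACS. Low and high (top ~1%) gates were set on anti-HA fluorescence for expression and streptavidin fluorescence for reagent binding, and each polyreactivity label reflects the gate of origin.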

Sequence | polyreactivity (PSR sort gate)
QVQLVESGGGLVQAGGSLRLSCAASGSIFSSYAMGWYRQAPGKERALVAGISRRGGSTYYADSVKGRFTISRDNAKNTVYLQMNSLKPEDTAVYYCNARSAGSDLDYWGQGTQVTVSS | high polyreactivity
QVQLVESGGGLVQAGGSLRLSCAASGSIFSSYAMGWYRQAPGKEREFVAAISWGGGSTYYADSVKGRFTISRDNAKNSVYLQMNSLKPEDTAVYYCAVETWLYPYDYWGQGTQVTVSS | high polyreactivity
QVQLVESGGGLVQAGGSLRLSCAASGSIFSSYAMGWYRQAPGKERELVAAISQSGGDTYYADSVKGRFTISRDNAKNTVYLQMNSLKPEDTAVYYCNRDFSLVVHYNFDYWGQGTQVTVSS | low polyreactivity
QVQLVESGGGLVQAGGSLRLSCAASGSIFSSYAMGWYRQAPGKERELVAAISSSGDSTYADSVKGRFTISRDNAKNTVYLQMNSLKPEDTAVYDCAVGGAGSDDYWGQGTQVTVSS | low polyreactivity
QVQLVESGGGLVQAGGSLRLSCAASGSIFSSYAMGWYRQAPGKERELVASISRRGGSTYYADSVKGRFTISRDNAKNTVYLQMNSLKPEDTAVYYCNASGGPYRYYYWGQGTQVTVSS | low polyreactivity
QVQLVESGGGLVQAGGSLRLSCAASGSIFSSYTMGWYRQAPGKERELVASITSGDSTNYADSVKGRFTISRDNAKNTVYLQMNSLKPEDTAVYYCNKSTLGVPVYEVIFEYWGQGTQVTVSS | low polyreactivity
QVQLVESGGGLVQAGGSLRLSCAASGSIFSSYVMGWYRQAPGKERELVAAITFSGATTYYADSVKGRFTISRDNAKNTVYLQMNSLKPEDTAVYYCATKAYTTGRYYWGQGTQVTVSS | high polyreactivity
QVQLVESGGGLVQAGGSLRLSCAASGSIFSTNDMGWYRQAPGKERELVAAISVSGGSTYYADSVKGRFTISRDNAKNTVYLQMNSLKPEDTAVYYCNADYTRGTMYYWGQGTQVTGSS | low polyreactivity
QVQLVESGGGLVQAGGSLRLSCAASGSIFSTYAMGWYRQAPGKERELVAAINRGTSTNYADSVKGRFTISRDNAKNTVYLQMNSLKPEDTAVYYCAAYYRGRYGPRRSEYWGQGTQVTVSS | high polyreactivity
QVQLVESGGGLVQAGGSLRLSCAASGSIFSTYAMGWYRQAPGKERELVAAISTRGGRTYYADSVKGRFTISRDNAKNTVYLQMNSLKPEDTAVYYCAAKRGKTYQRFDYWGQGTQVTVSS | high polyreactivity
QVQLVESGGGLVQAGGSLRLSCAASGSIFSTYARGWYRQAPGKERELVATITSGGNTNYADSVKGRYTISRDNAKNTVYLQMNSLKPEDTAVDYSNKEWDGDGYTDDWDYDYWGQGTQVTVSS | low polyreactivity
QVQLVESGGGLVQAGGSLRLSCAASGSIFSTYTMGWYRQAPGKERELVATIRLRGGSTYYADSVKGRFTISRDNAKNTVYLQMNSLKPEDTAVYYCNKAYRYYQYGYWGQGTQVTVSS | high polyreactivity
QVQLVESGGGLVQAGGSLRLSCAASGSIFSVNAMGWYRQAPGKERELVATITAGGGSTNYADSVKVRFTISRDNAKNTVYLQMNSLKPEDTAVYYCAADYWYVSWYDYWGQGTQVTVSS | low polyreactivity
QVQLVESGGGLVQAGGSLRLSCAASGSIFSVYAMGWYRQAPGKERELVAAIDFSGGSTYYADSVKGRFTISRDNPKNTVYLQMNSLKPEDTAVYYCAAEYLPYPEYEYDYWGQGTQVTVSS | low polyreactivity
QVQLVESGGGLVQAGGSLRLSCAASGSIFSVYAMGWYRQAPGKERELVAAISTRGGSTYYADSVKGRFTISRDNAKNTVYLQMNSLKPEDTAVYYCAKRWPQYTDYKPMYYWGLGTQVTVSS | high polyreactivity
QVQLVESGGGLVQAGGSLRLSCAASGSIFSVYARGWSRQAPGKERELVAAITSGTSTYADSVKGRFTISRDNAKNTVYLQMNSLKPEDTAVYACAAESGSPGYYYWGQGTQVTVSS | low polyreactivity

Sequence | polyreactivity (PSR sort gate)
QVQLVESGGGLVQAGGSLRLSCAASGSIFSWYAMGWYRQAPGKERELVAAISNSGGSTYYADSVKGRFTISRDNAKNTVYLQMNSLKPEDTAVYYCAAYDGDTYDWGQGTQVTVSS | high polyreactivity
QVQLVESGGGLVQAGGSLRLSCAASGSIFSYKTMGWYRQAPGKERELVAAISSDGSTYYADSVKGRFTISRDNAKNTVYLQMNSLKPEDTAVYYCAATYYPYEHYYWGQGTQVTLSS | low polyreactivity
QVQLVESGGGLVQAGGSLRLSCAASGSIFSYNAMGWYRQAPGKERELVAAIDWSGGSTYYADSVKGRFTISRDNAKNTVYLQMNSLKPVDTAVYYCNAVGVFYYSYHYHQYDYWGQGTQVTVSS | low polyreactivity
QVQLVESGGGLVQAGGSLRLSCAASGSIFSYNAMGWYRQATGKERELVARITRGGDGTYYADSVKGRFTISRDNAKNTVYLQMNSLKPEDTAVYYCAATPYWYHLRVEGGYWGQGTQVTVSS | low polyreactivity
QVQLVESGGGLVQAGGSLRLSCAASGSIFSYYAMGWNRQAHGKERELVASITRGGSTYYADSVKGRFTISRDNAKNTVYLQMNSLKPEDSAVYYCAAAARYYSRYDFPNNYWGQVTQVTVSS | low polyreactivity
QVQLVESGGGLVQAGGSLRLSCAASGSIFSYYAMGWYRQAPGKERELVAAITSGGATTYYADSVKGRFTISRDNAKNTVYLQMNSLKPEDTAVYYCAAGYYVYYRWWELDYWGQGTQVTVSS | low polyreactivity
QVQLVESGGGLVQAGGSLRLSCAASGSIFSYYAMGWYRQAPGKERELVAAITTGGGTYYADSVKGRFTISRDNAKNTVYLQMNSLKPEDTAVYYCAKDGYPDQDVQVFNDSDYWGQGTQVTVSS | low polyreactivity
QVQLVESGGGLVQAGGSLRLSCAASGSIFSYYAMGWYRQAPGKERELVATISSGGSTNYADSVKGRFTISRDNAKNTVYLQMNSLKPEDTAVYYCAATIGHNGFDYWGQGTQVTVSS | low polyreactivity
QVQLVESGGGLVQAGGSLRLSCAASGSIFSYYDMGWYRQAPGKERELVAAITTGGSTNYADSVKGRFTISRDNAKNTVYLQMNSLKPEDTAVYYCNAGRWWSRGYGYWGQVTQVTVSS | high polyreactivity
QVQLVESGGGLVQAGGSLRLSCAASGSIFSYYVMGWYRQAPGKERELVAAISYSGGRTYYADSVKGRFTISRDNAKNTVYLQMNSLKQEDTAVYYCARRSYVYPYGYDYWGQGTQVTVSS | high polyreactivity
QVQLVESGGGLVQAGGSLRLSCAASGSIFSYYVMGWYRQAPGKERELVAAITSSGGSTYYADSVKGRFTISRDNAKNTVYLQMNSLKPEDTAVYYCAAYQRSQYRSYPGYEYWGQGTQVTVSS | high polyreactivity
QVQLVESGGGLVQAGGSLRLSCAASGSIFTDNAMGWYRQAPGKERELVAAITGRGGNTYYADSVKGRFPISRDIAKNPVYLQMNSLKPEDTAVYYCAARIFRTRKPLGYWGQGTQVTVSS | high polyreactivity
QVQLVESGGGLVQAGGSLRLSCAASGSIFTDNSMGWYRQAPGKERELVAAIDSVGSTYYADSVKGRFTISRDNAKNTVYLQMNSLKPEDTAVYYCAADLYFPYESYYWGQGTQVTVSS | low polyreactivity
QVQLVESGGGLVQAGGSLRLSCAASGSIFTDYTMGWSRQAPGKERELVAAISWIGDSTDYADSVKGRFTISRDNAKNTVYLQMNSLKPEDTAVYYCAKSRAGRYNDYDYWGQGTQVTVSS | low polyreactivity
QVQLVESGGGLVQAGGSLRLSCAASGSIFTENAMGWYRQAPGKERELVAAIRWDDGNTYYADSVKGRFTISRDNAKNTVYLQMNSLKTEDTAVYYCNADKWSSTDDWLYDYWGQGTQVTVSS | low polyreactivity
QVQLVESGGGLVQAGGSLRLSCAASGSIFTFYAMGWYRQAPGKERELVAAISSGGDTYYADSVKGRFTISRDNAKNTVYLQMNSLKAEDTAVYYCAADWRGSYLYGYYYWGQGTQVTVSS | low polyreactivity
